Test results published in US20190330333A1 (KAO, published 2019).
Where no end group is shown, it is not given here.

Legend:
[1] = target: T1, PEGylated N-terminus 15 amino acids of active GIP (GIP(1-15)), antigen (1) for measurement (also: PEGylated, position not given here); experiment: ELISA, immobilized peptide antigen, hybridoma culture supernatant
T1 construct: Immobilized on the ELISA plate; The assay antigen carries no KLH; only the immunogen was KLH-linked; also called PEGylated GIP(1-15)
T1 peptide: YAEGTFISDYSIAMD
Protocol: (§1) The reaction between the hybridoma culture supernatant and the antigen (1) and (2) for measurement was evaluated by ELISA using immobilized antigen (1) and (2), and hybridomas that are positive for the antigen (1) and negative for the antigen (2) were selected as anti-active GIP monoclonal antibody-producing hybridomas.
(§2) Antibody-producing hybridoma was cloned by culturing the hybridomas obtained above through a limiting dilution method to obtain single colonies, and single colony-forming wells were subjected to ELISA again to establish 9B9H5-B9 line, which produces an antibody that is positive for the antigen (1) and negative for the antigen (2) (WO 2016/104439).

[2] = target: T2, PEGylated N-terminus 13 amino acids of inactive GIP (GIP(3-15)), antigen (2) for measurement (also: PEGylated, position not given here); experiment: as above
T2 construct: Immobilized on the ELISA plate; also called PEGylated GIP(3-15)
T2 peptide: EGTFISDYSIAMD
Protocol: as §1, §2

inactive GIP, GIP(3-42) = target: T3, inactive GIP, GIP(3-42); experiment: sandwich ELISA, anti-total GIP mAb capture, biotinylated antibody at 1 ug/mL as detection
T3 peptide: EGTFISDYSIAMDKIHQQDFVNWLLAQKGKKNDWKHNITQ
Protocol: (§3) The reactivity between the monoclonal antibody prepared in Production Example 1 and active GIP was confirmed by ELISA. The amino group of the anti-active GIP monoclonal antibody was biotinylated with NH2 group biotinylation kit (manufactured by Dojindo Laboratories). ELISA was performed using the produced biotinylated anti-active GIP monoclonal antibody at 1 μg/mL instead of a detection antibody, GIP detection antibody (biotinylated anti-total GIP monoclonal antibody), included in Human (total) GIP ELISA kit (manufactured by EMD Millipore Corporation). A […] dilution series of GIP(1-42) or GIP(3-42) was prepared in 6 steps (8.2 to 2000 pg/mL) with a 2000 pg/mL solution as the highest concentration. By using an anti-total GIP monoclonal antibody (included in Human GIP (total) ELISA kit manufactured by EMD Millipore Corporation) as a capture antibody, the biotinylated anti-active GIP monoclonal antibody as a detection antibody, and a peroxidase-streptavidin conjugate for detection, sandwich ELISA was conducted to prepare a calibration curve with GIP concentration on the X-axis and 450 nm-590 nm absorbance on the Y-axis (FIG. 1).

active GIP, GIP(1-42) = target: T4, active GIP, GIP(1-42); experiment: sandwich ELISA, anti-total GIP mAb capture, biotinylated antibody at 1 ug/mL as detection, GIP 8.2 to 2000 pg/mL
T4 construct: The assay was built on a Human (total) GIP ELISA kit
T4 peptide: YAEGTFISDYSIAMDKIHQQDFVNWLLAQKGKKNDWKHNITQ
Protocol: as §3

- binding result [1]: binds
- binding result [2]: no binding
- binding result (inactive GIP, GIP(3-42)): no binding
- binding result (active GIP, GIP(1-42)): binds
B1: anti-active GIP monoclonal antibody produced by hybridoma 9B9H5-B9 line (Production Example 1) (antibody, V domains shown)
VH: QVQLQQPGAELVKPGASVKLSCKASGYTFTSFWMHWVIQRPGQGLEWIGEMNPSDGRTHFNEKFKTKATLTIDTSSNTAYMELNSLTSEDSAVYYCARRMEDWGQGTLVTVSA
VL: DIKMTQSPSSMYASLGERVTITCKASQDINSYLGWFQQKPGKSPKTLIYGANRLVDGVPSRFSGSGSGQDYSLTISSLEYDDMGIYYCLQYDEFPLTFGAGTKLELKR
notes: Mouse (BALB/c) hybridoma monoclonal antibody; Culture supernatant was used in the screening and cloning ELISA; also called anti-active GIP antibody
